Like-named read-outs stand apart in the source and are kept apart here. Where no end group is shown, it is not given here.

For the assay, the target named is T1, CCR2 (Homo sapiens, UniProt P41597).
T1 construct: endogenous in cells; host or cells: THP-1
T1 sequence (P41597 1-360 isoform P41597-2): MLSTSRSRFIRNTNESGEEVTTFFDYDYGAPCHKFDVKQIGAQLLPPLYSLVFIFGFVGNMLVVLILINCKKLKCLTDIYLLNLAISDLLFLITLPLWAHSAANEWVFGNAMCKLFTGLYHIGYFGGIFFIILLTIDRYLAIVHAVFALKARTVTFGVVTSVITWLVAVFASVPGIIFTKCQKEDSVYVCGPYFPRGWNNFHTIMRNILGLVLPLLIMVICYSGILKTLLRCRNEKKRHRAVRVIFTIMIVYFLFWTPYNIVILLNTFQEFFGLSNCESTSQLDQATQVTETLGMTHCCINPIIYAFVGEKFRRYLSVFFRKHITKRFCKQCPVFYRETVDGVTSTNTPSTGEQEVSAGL
The assay can be described thus: CCR2 inhibitory potency assay, calcium flux method, THP-1 cells stimulated with 100 nM CCL2. The format is cell-based. The following applies: CCR2 inhibition, read-out: mean IC50. The procedure:
CCR2 inhibitory potency assay was determined using the calcium flux method.
Ca^2+ flux measurements were performed using an FDSS micro-cell device ([…]). On the day of the experiment, THP-1 cells were seeded 20000 cells/well) to wells of black-walled clear-bottom 384-well plates.
THP-1 cells were loaded with a calcium-sensitive fluorescent dye (Screen Quest™ Fluo-8 No Wash Calcium Assay Kit, AAT Bioquest) according to the manufacturer's instructions, then a first addition of either test sample dilutions or vehicle alone were added. 5 minutes later, cells were stimulated with 100 nM CCL2.

Take “CCL2 variant, N-terminal FTNPTWKPYA (SEQ ID NO: 91), human CCL2 11-76 Met64Nle core (not fully specified (C-terminus); also: followed C-terminally by human CCL2 11-76 core with Met64Nle) [3P16-CCL2]”: the IC50 (Table 4) came to 0.00123 µM.

Consider “CCL2 variant, N-terminal FTNPTWQEYS (SEQ ID NO: 92), human CCL2 11-76 Met64Nle core (not fully specified (C-terminus); also: followed C-terminally by human CCL2 11-76 core with Met64Nle) [3P17-CCL2]”, for which the IC50 (Table 4) was found to be 0.001 µM.

Turning to “CCL2 variant, N-terminal FTNPTWRPST (SEQ ID NO: 80), human CCL2 11-76 Met64Nle core (not fully specified (C-terminus); also: followed C-terminally by human CCL2 11-76 core with Met64Nle) [3P5-CCL2]”, the IC50 (Table 4) stood at 0.00286 µM.

For “CCL2 variant, N-terminal FTNPTWSGVT (SEQ ID NO: 81), human CCL2 11-76 Met64Nle core (not fully specified (C-terminus); also: followed C-terminally by human CCL2 11-76 core with Met64Nle) [3P6-CCL2]”, the IC50 (Table 4) turned out to be 0.00127 µM.

Turning to “CCL2 variant, N-terminal FTNPTWSQGV (SEQ ID NO: 94), human CCL2 11-76 Met64Nle core (not fully specified (C-terminus); also: followed C-terminally by human CCL2 11-76 core with Met64Nle) [3P19-CCL2]”, the IC50 (Table 4) is 0.000914 µM.

For “CCL2 variant, N-terminal ISWFTFNAPVT (SEQ ID NO: 22), human CCL2 Met64Nle core [CCL2-M64Nle-1P13]”, the half-inhibitory concentration (IC50) (Table 3) came to 0.0312 µM.

“CCL2 variant, N-terminal IYGVGWNAPVT (SEQ ID NO: 14), human CCL2 Met64Nle core [CCL2-M64Nle-1P14]”: the IC50 (Table 3) was found to be 0.00999 µM.

On to “CCL2 variant, N-terminal MYGLGWNAPVT (SEQ ID NO: 23), human CCL2 Met64Nle core [CCL2-M64Nle-1P19]”, for which the IC50 (Table 3) stood at 0.0324 µM.

As for “CCL2 variant, N-terminal RPYLWKAPVT (SEQ ID NO: 12), human CCL2 Met64Nle core [CCL2-M64Nle-2P5]”, the 50% inhibitory concentration (IC50) (Table 3) was found to be 0.00583 µM.

In the case of “CCL2 variant, N-terminal SPSYTRAPVT (SEQ ID NO: 31), human CCL2 Met64Nle core [CCL2-M64Nle-2P7]”, the half-maximal inhibitory concentration (IC50) (Table 3) was determined as 0.0502 µM.

For the substance “CCL2 variant, N-terminal TPGH(Nle)KAPVT (SEQ ID NO: 37), human CCL2 Met64Nle core [CCL2-M64Nle-2P4]”, under “Table 3”, the 50% inhibitory concentration (IC50) came out at 0.183 µM.

As to “CCL2 variant, N-terminal TPGHYRAPVT (SEQ ID NO: 39), human CCL2 Met64Nle core [CCL2-M64Nle-2P3]”, the IC50 (Table 3) came out at 0.225 µM.

With “CCL2 variant, N-terminal TPGYLKAPVT (SEQ ID NO: 19), human CCL2 Met64Nle core [CCL2-M64Nle-NGS-MEO-5]”, the 50% inhibitory concentration (IC50) (Table 3) turned out to be 0.0184 µM.

Consider “CCL2 variant, N-terminal VPDWSQAPVT (SEQ ID NO: 18), human CCL2 Met64Nle core [CCL2-M64Nle-1P22]”, for which the IC50 (Table 3) was 0.0153 µM.

Take “CCL2 variant, N-terminal VTNPTWAPVT (SEQ ID NO: 20), human CCL2 Met64Nle core [CCL2-M64Nle-1P02-F1V]”: the IC50 (Table 3) is 0.0246 µM.

Consider “CCL2 variant, N-terminal WRPHWSAPVT (SEQ ID NO: 25), human CCL2 Met64Nle core [CCL2-M64Nle-1P3]”, for which the IC50 (Table 3) came out at 0.0328 µM.

Take “CCL2 variant, N-terminal WVLSSLNAPVT (SEQ ID NO: 17), human CCL2 Met64Nle core [CCL2-M64Nle-1P5]”: the half-inhibitory concentration (IC50) (Table 3) was 0.0142 µM.

As for “CCL2 variant, N-terminal WYTVGWNAPVT (SEQ ID NO: 21), human CCL2 Met64Nle core [CCL2-M64Nle-1P16]”, the IC50 (Table 3) worked out at 0.0267 µM.

As to “CCL2-M64Nle-NGS-MESR-1 (SYSWVR; also: part of CCL2 M64Nle construct, placement of chain in protein not given here)”, the 50% inhibitory concentration (IC50) (Table 3) worked out at 0.155 µM.

Consider “CCL2-M64Nle-NGS-MESR-5 (AWGGIR; also: part of CCL2 M64Nle construct, placement of chain in protein not given here)”, for which the IC50 (Table 3) was determined as 0.0415 µM.
